Article PMC9750192
Values joined by “and” are separate entries in the source; they are usually repeats but may differ in a detail not shown here. Equal entries are not always repeated. Where two headings read alike, the source gives them in different places.

Columns and labels:
[1] = biological target: GMPCPP-stabilized HeLa cell microtubules (human (endogenous in HeLa)) (UniProt P68363); experiment: cryo-EM structure
[2] = biological target: GMPCPP-stabilized HeLa cell microtubules (human (endogenous in HeLa)) (UniProt P68363); experiment: cryo-EM structure; remark: listed apart in the source
[3] = biological target: Taxol-stabilized microtubules enriched in detyrosinated HeLa tubulin (human (endogenous in HeLa) | not stated) (UniProt P68363); experiment: single-molecule TIRF microscopy
[4] = biological target: Taxol-stabilized microtubules enriched in tyrosinated HeLa tubulin (human (endogenous in HeLa) | not stated) (UniProt P68363); experiment: single-molecule TIRF microscopy
[5] = biological target: Taxol-stabilized microtubules enriched in tyrosinated HeLa tubulin (human (endogenous in HeLa) | not stated) (UniProt P68363); experiment: single-molecule TIRF microscopy; remark: listed apart in the source
[6] = biological target: Taxol-stabilized microtubules enriched in tyrosinated HeLa tubulin (human (endogenous in HeLa) | not stated) (UniProt P68363); experiment: single-molecule TIRF microscopy; remark: listed apart in the source
[7] = biological target: Taxol-stabilized microtubules enriched in tyrosinated HeLa tubulin (human (endogenous in HeLa) | not stated) (UniProt P68363); experiment: single-molecule TIRF microscopy; remark: listed apart in the source
[8] = biological target: Taxol-stabilized microtubules enriched in detyrosinated HeLa tubulin (human (endogenous in HeLa) | not stated) (UniProt P68363); experiment: single-molecule TIRF microscopy; remark: listed apart in the source
[9] = biological target: Taxol-stabilized microtubules enriched in tyrosinated HeLa tubulin (human (endogenous in HeLa) | not stated) (UniProt P68363); experiment: single-molecule TIRF microscopy; remark: listed apart in the source

Sequence of Taxol-stabilized microtubules enriched in tyrosinated HeLa tubulin (human (endogenous in HeLa) | not stated) (P68363 whole entry, chain 1 of 2): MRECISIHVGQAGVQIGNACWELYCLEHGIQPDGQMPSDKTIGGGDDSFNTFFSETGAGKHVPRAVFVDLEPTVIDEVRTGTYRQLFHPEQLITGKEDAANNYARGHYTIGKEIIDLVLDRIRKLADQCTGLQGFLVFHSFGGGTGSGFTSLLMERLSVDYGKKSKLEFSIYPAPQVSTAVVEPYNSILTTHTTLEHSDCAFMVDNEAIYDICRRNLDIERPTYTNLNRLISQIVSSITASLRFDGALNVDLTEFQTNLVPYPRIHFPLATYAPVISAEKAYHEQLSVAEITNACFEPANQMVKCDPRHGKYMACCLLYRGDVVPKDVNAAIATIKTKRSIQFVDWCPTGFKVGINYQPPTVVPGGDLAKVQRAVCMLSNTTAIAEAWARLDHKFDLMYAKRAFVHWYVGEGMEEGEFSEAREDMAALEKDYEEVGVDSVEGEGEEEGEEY
Sequence of Taxol-stabilized microtubules enriched in tyrosinated HeLa tubulin (human (endogenous in HeLa) | not stated) (P07437 whole entry, chain 2 of 2, further chain): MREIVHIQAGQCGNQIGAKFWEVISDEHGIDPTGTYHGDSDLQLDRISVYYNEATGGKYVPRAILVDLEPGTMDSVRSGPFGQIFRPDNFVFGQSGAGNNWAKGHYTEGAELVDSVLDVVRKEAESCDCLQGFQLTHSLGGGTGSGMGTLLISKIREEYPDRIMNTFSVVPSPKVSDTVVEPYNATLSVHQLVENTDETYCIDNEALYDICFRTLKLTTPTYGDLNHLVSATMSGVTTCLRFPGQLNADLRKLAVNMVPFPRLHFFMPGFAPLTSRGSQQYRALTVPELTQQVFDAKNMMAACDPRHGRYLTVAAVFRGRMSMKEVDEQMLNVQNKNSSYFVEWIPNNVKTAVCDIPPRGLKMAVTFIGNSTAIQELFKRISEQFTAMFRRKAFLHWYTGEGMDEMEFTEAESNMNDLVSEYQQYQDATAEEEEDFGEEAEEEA
Sequence of full-length sfGFP-VASH1–SVBP complex (Q7L8A9 whole entry): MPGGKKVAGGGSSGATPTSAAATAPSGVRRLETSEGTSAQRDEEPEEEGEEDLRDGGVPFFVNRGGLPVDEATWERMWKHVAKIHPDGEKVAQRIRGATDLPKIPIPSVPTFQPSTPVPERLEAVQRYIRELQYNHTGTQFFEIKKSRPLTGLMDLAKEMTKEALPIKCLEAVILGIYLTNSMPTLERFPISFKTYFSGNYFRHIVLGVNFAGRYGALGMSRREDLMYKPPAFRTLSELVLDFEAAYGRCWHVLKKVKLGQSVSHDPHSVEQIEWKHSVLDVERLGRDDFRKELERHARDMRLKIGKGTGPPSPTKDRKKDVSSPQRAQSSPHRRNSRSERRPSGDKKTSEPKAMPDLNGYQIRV
Sequence of full-length sfGFP-VASH1–SVBP complex (Q8N300 whole entry): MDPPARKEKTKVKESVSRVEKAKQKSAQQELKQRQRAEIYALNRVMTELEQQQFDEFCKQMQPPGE
Sequence of Taxol-stabilized microtubules enriched in detyrosinated HeLa tubulin (human (endogenous in HeLa) | not stated) (P68363 1-450, chain 1 of 2): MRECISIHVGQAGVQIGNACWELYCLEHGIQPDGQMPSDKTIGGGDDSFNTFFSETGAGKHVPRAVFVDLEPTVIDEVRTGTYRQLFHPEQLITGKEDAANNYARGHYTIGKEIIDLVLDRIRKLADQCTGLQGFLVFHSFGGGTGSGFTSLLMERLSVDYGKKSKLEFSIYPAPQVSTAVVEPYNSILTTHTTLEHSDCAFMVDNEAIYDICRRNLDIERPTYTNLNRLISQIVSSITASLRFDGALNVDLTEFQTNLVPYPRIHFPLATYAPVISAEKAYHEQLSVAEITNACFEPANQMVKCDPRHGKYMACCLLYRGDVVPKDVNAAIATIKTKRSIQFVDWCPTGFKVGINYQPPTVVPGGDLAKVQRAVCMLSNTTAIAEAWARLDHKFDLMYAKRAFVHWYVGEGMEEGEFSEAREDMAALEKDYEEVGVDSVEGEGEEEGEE
Sequence of Taxol-stabilized microtubules enriched in detyrosinated HeLa tubulin (human (endogenous in HeLa) | not stated) (P07437 whole entry, chain 2 of 2, further chain): as the sequence (P07437 whole entry, chain 2 of 2, further chain) above
Sequence of full-length sfGFP-VASH2–SVBP complex (Q86V25 whole entry): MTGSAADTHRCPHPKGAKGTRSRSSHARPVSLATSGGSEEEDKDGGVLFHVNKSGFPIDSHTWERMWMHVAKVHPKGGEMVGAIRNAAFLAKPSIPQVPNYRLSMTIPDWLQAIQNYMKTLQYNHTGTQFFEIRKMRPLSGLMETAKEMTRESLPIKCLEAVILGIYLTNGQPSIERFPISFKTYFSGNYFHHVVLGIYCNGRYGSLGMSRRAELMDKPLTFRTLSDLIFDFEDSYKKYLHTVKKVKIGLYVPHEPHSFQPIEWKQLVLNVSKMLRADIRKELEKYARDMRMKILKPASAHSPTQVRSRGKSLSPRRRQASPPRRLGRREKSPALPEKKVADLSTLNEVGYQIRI
Sequence of full-length sfGFP-VASH2–SVBP complex (Q8N300 whole entry): as the sequence (Q8N300 whole entry) above

| residence time τ [3] [s] | binding frequency (min-1.nM^−1.µm^−1) [4] | binding frequency (min^−1.nM^−1.µm^-1) [4] | mean covering of the microtubule surface during a 45 s movie [4] [%] | residence time τ [4] | binding frequency (min^−1.nM^−1.µm^-1) [5] | residence time τ [6] [s] | residence time τ [7] [s] | Substance | further results |
| --- | --- | --- | --- | --- | --- | --- | --- | --- | --- |
|  |  |  |  |  |  |  |  | catalytically dead VASH2(Cys158Ala)–SVBP complex for cryo-EM (from UniProt Q86V25 1-355; Q8N300 1-66) | occupancy of the binding sites on the microtubule [1]: 50.9%; occupancy of the binding sites on the microtubule [2]: 40% |
| 0.6 | 80.4 | 132 | 82 | 1 s and 1.2 s | 86.4 |  |  | catalytically dead full-length sfGFP-VASH1(C169A)–SVBP complex (from UniProt Q7L8A9-1 1-365; Q8N300 1-66) |  |
|  |  | 13.9 | 28 | > 14.6 s |  |  |  | catalytically dead full-length sfGFP-VASH2(C158A)–SVBP complex (from UniProt Q86V25-1 1-355; Q8N300 1-66) |  |
|  | 70.7 |  |  |  |  |  |  | dead VASH1 core domain (sfGFP-VASH1 57–307 C169A) in complex with SVBP (from UniProt Q7L8A9-1 57-307; Q8N300 1-66) |  |
| 0.5 |  | 80.8 | 75 | 0.5 s and 0.8 s | 51.6 | 0.2 | 1.2 | full-length sfGFP-VASH1–SVBP complex (from UniProt Q7L8A9-1 1-365; Q8N300 1-66) | binding frequency (min^−1.nM^−1.µm^-1) [6]: 3; residence time τ [5]: 0.8 s |
|  |  | 13 | 25 | > 11 s |  | 3.9 | > 12.9 | full-length sfGFP-VASH2–SVBP complex (from UniProt Q86V25-1 1-355; Q8N300 1-66) | residence time τ [8]: 0.6 s; residence time τ [9]: 0.9 s |
